Laboratory results: patent publication US20220380455A1 (Alector, published 2022)

Legend:
MS4A6A ECL2 peptide = biological target: T1, MS4A6A ECL2 peptide (human); assay: array SPR (Carterra MX-96), antibody captured, peptide injected; both duplicates N/A
T1 construct: also called MS4A6A ECL-2 peptides
T1 peptide: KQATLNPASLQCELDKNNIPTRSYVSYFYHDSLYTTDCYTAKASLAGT
Experimental: (§1) Binding kinetic characterization of the purified antibodies to MS4A6A ECL1 and ECL2 peptides was performed by Carterra (South San Francisco, Calif.) using a proprietary array Surface Plasmon Resonance (SPR) instrument (MX-96) as follows. Antibodies were printed onto a CMD5OOD chip (Xantec #SPMX CMD500D lot #SC CMD500D0117.a Exp. 31.12.18) using the Continuous Flow Microspotter (CFM). First, the chip was activated with 100 mM MES pH 5.5, 100 μL EDC (133 mM final), 100 μL of S-NHS (33.3 mM final), for 7 minutes. A lawn of anti-mouse IgG-Fc (Jackson ImmunoResearch CAT #115-005-071 lot#130410) was injected for 15 minutes to establish a surface density of 10000-12000 RU, after which the chip surface was deactivated with 1 M ethanolamine at pH 8.5 for 10 minutes. Anti-MS4A6A antibodies in question, in the form of hybridoma supernatants diluted 2:1 with HBS-EP+buffer (Teknova CAT #H8022), were then printed as duplicates with a 20 minute and a 5 minutes print from the same sample solution. Control antibodies were diluted to 20 μ/ml for printing.
(§2) To perform kinetic analysis, the peptides in question were prepared in HBS-EP+buffer with lmg/ml BSA at final assay concentrations of 2000 nM, 400 nM, 80 nM, 16 nmM, and 3.2 nM. These were then injected on the chip for five minutes, followed by a seven-minute dissociation period at 8 uL per second in a non-regenerative kinetic series. Duplicate measurements for each anti-MS4A6A antibody were taken to ensure reproducibility.
(§3) Kₐ (association rate constant; Kₒₙ), Kd (dissociation rate constant; Koff) and KD (equilibrium constant) to MS4A6A ECL-2 peptides were calculated for each of the 23 anti-MS4A6A antibodies tested, the results of which are shown below in Table 5 (clones that bound too weakly to determine these values are denoted as N/A in Table 5).

cynomolgus (cyno) MS4A6A [1] = biological target: T2, cynomolgus (cyno) MS4A6A (cynomolgus, UniProt Q9H2W1 1-246 (human entry)); assay: flow cytometry, hybridoma supernatant, HEK293 transfected with cyno MS4A6A over parental HEK293; Screen 1
T2 construct: Full-length protein expressed in transfected HEK293, U937 or K562 cells (flow cytometry)
T2 chain: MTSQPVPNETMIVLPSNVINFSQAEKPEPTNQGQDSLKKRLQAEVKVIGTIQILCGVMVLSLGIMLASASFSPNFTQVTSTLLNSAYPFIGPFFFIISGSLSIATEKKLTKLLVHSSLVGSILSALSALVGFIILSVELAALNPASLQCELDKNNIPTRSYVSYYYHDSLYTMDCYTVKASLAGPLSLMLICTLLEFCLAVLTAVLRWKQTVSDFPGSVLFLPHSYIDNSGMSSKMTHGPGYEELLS
Experimental: (§4) Positive clones were expanded and then rescreened for specificity against HEK293 cells overexpressing cyno MS4A6A and parental HEK293 cells. Briefly, previously prepared, cryopreserved transiently-transfected cells were labeled with LIVE/DEAD Fixable Aqua Dead Cell Stain Kit (ThermoFisher Scientific L34957) on ice for 30 minutes. After a wash with PBS, 2×10⁵ cells were aliquoted per well in 96-well round bottom plates and incubated with 50 μl of culture supernatant on ice for 30 mins. […] Following this secondary incubation, the cells were again washed twice with ice-cold FACS buffer and resuspended in a final volume of 200 μl of FACS buffer. Analysis was performed on a FACS Canto system (BD Biosciences), with sort gates drawn to exclude dead (Aqua-positive) cells. […] The screen was repeated twice, and the numbers reported here represent the ratio of mean fluorescence level in transfected cells over parental cells.

MS4A6A ECL1 peptide = biological target: T3, MS4A6A ECL1 peptide (human); assay: array SPR (Carterra MX-96), antibody captured, peptide injected
T3 construct: the description elsewhere gives ECL1 as 68-84; Human and cyno ECL1 are said to be identical
T3 peptide: SASFSPNFTQVTSTLLNS
Experimental: as §1, §2, §3

BSA-MS4A6A-ECL2 peptide = biological target: T4, BSA-MS4A6A-ECL2 peptide (human, BSA-conjugated); assay: peptide ELISA, hybridoma supernatant
T4 construct: Synthetic peptide derived from ECL2, conjugated to BSA, coated on the ELISA plate; also called MS4A6A-ECL2 BSA conjugated peptide; BSA-MS4A6A-ELC2 peptide
T4 peptide: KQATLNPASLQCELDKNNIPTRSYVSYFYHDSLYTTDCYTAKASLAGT
Experimental: Anti-MS4A6A hybridoma supernatants were tested for binding to MS4A6A peptides derived from ECL1 (amino acid residues 68-85 of human MS4A6A of SEQ ID NO:1) and ECL2 (amino acid residues 138-185 of human MS4A6A of SEQ ID NO:1) sequences, using an enzyme-linked immunosorbent assay (ELISA). Briefly, 96-well polystyrene plates were coated with 1-10 μg/mL of synthetic free or BSA-conjugated peptides in coating buffer (0.05M carbonate buffer, pH9.6, Millipore Sigma C3041) overnight at 4° C. Coated plates were then blocked with ELISA diluent (PBS+0.5% BSA+0.05% Tween20) for 1-hour, washed 3×300 μL in PBST (PBS+0.05% Tween20, Thermo 28352), and then the antibodies were added at various dilutions (100-1000×) in ELISA diluent. After 30 mins incubation (room temperature, with shaking), the plates were washed 3×300 μl in PBST. A secondary anti-mouse HRP antibody (Jackson Immunoresearch CAT #115-035-003) was added at a 1:1000 dilution in ELISA diluent (50 μL/well) and incubated for 30 minutes at room temperature with shaking. After a final set of washes (3×300 μl in PBST), 50 μL of TMB substrate (BioFx TMBW-1000-01) was added and the reaction was then quenched after 5-10 mins with 50 μL of stop solution (BioFx BSTP-1000-01). The quenched reaction wells were detected for absorbance at […] with a BioTek Synergy Microplate Reader using GENS 2.04 software.

cynomolgus (cyno) MS4A6A [2] = biological target: T2, cynomolgus (cyno) MS4A6A; assay: flow cytometry, hybridoma supernatant, HEK293 transfected with cyno MS4A6A over parental HEK293; Screen 2
Experimental: as §4

B1: 6A-1 (antibody, V domains shown)
VH: EVQLQQSGPELVKPGASVKISCKASGYSFTGYYMHWVKQSPEDSLEWIGAINPSTGGSTYSQKFKDKATLTVDKSSSTAYMQLKSLTSEESAVYYCTRFDGYGYWGQGTLVTVSA
VL: DIVMTQAAFSNPVTLGTSASISCRSSKSLLHSNGITYLYWYLQKPGQSLQLLIYQMSNLASGVPDRFSGSGSGTDFTLRISRVEAEDVGVYYCAQNLELPWTFGGGTKLEIK
notes: Mouse hybridoma antibody, tested as hybridoma supernatant (mouse IgG, detected or captured via anti-mouse IgG Fc); also called anti-MS4A6A antibody 6A-1
MS4A6A ECL2 peptide
  binding result: no binding (tested: 2000 nM)
Cynomolgus (cyno) MS4A6A [1]
  ratio of APC MFI on MS4A6A+/HEK parental cells: 7.5 ratio
MS4A6A ECL1 peptide
  binding result: no binding (tested: 2000 nM)
BSA-MS4A6A-ECL2 peptide
  binding result: no binding
Cynomolgus (cyno) MS4A6A [2]
  ratio of APC MFI on MS4A6A+/HEK parental cells: 7.6 ratio
